Molecular target: human Fas (CD95/APO-1) (human) (UniProt P25445)
Assay: flow cytometric immunofluorescence on 293 cells, 2 ug/ml antibody compared with FITC-conjugated isotype control DAK-G01

UniProt P25445, sequence (P25445 26-335 limits assumed): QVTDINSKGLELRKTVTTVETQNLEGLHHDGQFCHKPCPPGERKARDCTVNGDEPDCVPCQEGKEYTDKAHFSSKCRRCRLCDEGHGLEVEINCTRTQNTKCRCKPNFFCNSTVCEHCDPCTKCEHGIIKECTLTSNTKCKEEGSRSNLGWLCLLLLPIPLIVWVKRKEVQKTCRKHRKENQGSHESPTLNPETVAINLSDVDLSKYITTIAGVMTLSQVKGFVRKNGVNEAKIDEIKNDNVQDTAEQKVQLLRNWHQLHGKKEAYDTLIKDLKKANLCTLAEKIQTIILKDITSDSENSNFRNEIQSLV

## FITC-conjugated mouse IgG1 anti-human Fas receptor (clone DX2, Pharmingen) (antibody)
  mean Fas fluorescence, fold over nonspecific fluorescence (isotype control): 4.9 fold
